Measured values published in the supplement of paper PMC12636428.

Tested on: Saccharomyces cerevisiae
Experiment: transcriptional activation domain activity (GFP:mCherry ratio, weighted mean of sorted bins, harmonized to initial dataset scale) (arbitrary fluorescence ratio units); higher = stronger transcriptional activation
Conditions: beta-estradiol 1 µM; induction time 4 h
Method: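 53-aa protein tiles (fungal proteins plus yeast TF control tiles) fused C-terminally to a DBD-estrogen-binding domain-mCherry synthetic TF, integrated in S. cerevisiae (URA3 locus) with a GFP reporter. Cells were induced with 1 uM beta-estradiol for 4 h at 30 C, FACS-sorted into 8 bins by GFP:mCherry ratio and barcodes sequenced. Activity is the read-weighted mean bin fluorescence (GFP:mCherry), averaged over barcodes (median 12); tiles under 50 reads were discarded. New active-learning values were harmonized by linear fit onto the scale of the initial (Hummel et al.) dataset. The assay saturates at low and high signal.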

For “MFFFLSAFLLPFLFFLVGHSAPSFLYLVFLSFLFYYLLHFYFFLFFTYFCGSC”, the “transcriptional activation domain activity” value was 59300.

For “YKKLQWHYFLFDLCYYVNILNFVFLWIFPHSPSLFVACYCLSLGSVASAIITW”, the “transcriptional activation domain activity” value was 27700.

With “FFLLFHIFHCLWGPRATILLFFSILLFFYPISTFMRCIIHRVFLLFFAFFFFL” the “transcriptional activation domain activity” value was 22200.

In the case of “LSVVHISAPGYQAFFLLQSFRYILLWVLSFLSHFFLPFFLLCQGCFLVQHLPT”, the “transcriptional activation domain activity” value is reported as 54000.

In the case of “KEEAGEEAEEASPAPSEQKEEAPPSGQKPQANTGKKKDQASPAKKTGATAAAK”, the “transcriptional activation domain activity” value is reported as 13700.

For “IGETDAKAKKEKKEKKGKKAQEGAVVAETVDGGEEKKKKKKSKAKGETTADSM”, the “transcriptional activation domain activity” value was 35100.

In the case of “KGEKDKENDKGEKGEGEKKGENRSRRRRGGRGRGSGDKDKEKDKDGGGGAKKA”, the “transcriptional activation domain activity” value is reported as 27800.

“DGVKGWAVGVVVAGPFMAGLIKLIRWAGDSFVAYVVVFLFVFQLVAMTLYPTL” was tested, and the “transcriptional activation domain activity” value was 19000.

For “TLHFFQPIAKWFGIKKSSKLIRFGEQGHAMAYFAVTSCWGLRVMRQLPTWWYR”, the “transcriptional activation domain activity” value was 41500.

For “TLPFQIFMICDLTVPLKLNGFLVNGSLNLLGIMMVRVTFSCLGLAQLFQLIIC”, the “transcriptional activation domain activity” value was 62100.

In the case of “NMGEQQKFTSPQHIVHKAKFLSNAADSEYSILSNIIYQDTLSNKIPIDILYSN”, the “transcriptional activation domain activity” value is reported as 76900.

With “LVYNDCMYIIFHLHMFEYRYGKQLAKTLLYWTYAHTHFCQLVQVESALRQVIQ” the “transcriptional activation domain activity” value was 48100.

“LRLAVKNMSEDLPPLVPDIVNLVKRLKWSKAACCYYVLVSNALSLVVFLIDTY” was tested, and the “transcriptional activation domain activity” value was 54900.

For “GQTHVHFFPSLSHFYPLFFSFYNVLYPPCLYVRICPISLLLLLWWCFYLTFFC”, the “transcriptional activation domain activity” value was 44100.

In the case of “EEGERKGEGGKEKWERDAVGNGGRGRQGGEQEEEREEGAGGRGKGGGGRSRGK”, the “transcriptional activation domain activity” value is reported as 45900.

In the case of “MDSGTLVGGANADGLVEIPLPGHDSIHLHVTHPRVMFLLTFLVSAACKRDPVS”, the “transcriptional activation domain activity” value is reported as 27100.

For “EAVPHQDNDSFRSEKKEGEAEVQIVEDVGSSIYGCDRTQRTLKNRHIQLIGVG”, the “transcriptional activation domain activity” value was 50200.

For “VDLTQLSHLMLKIWLELILIVVYKHNILERTYENMVISCMKQVIDLLARDISE”, the “transcriptional activation domain activity” value was 51900.

For “ILQHILLWSLMVMTGCCPGSFFITSYYPNEWLKFLDGYMIQPYVTTFMIRGFL”, the “transcriptional activation domain activity” value was 56900.

With “SLGMGLDYWARLSGLYLQKLGWGYRVWCFSFWMGLSLGFLLLFSSLGAYILFL” the “transcriptional activation domain activity” value was 55400.

“EYAPKTPVVAAAVPKEEKKEEKAEEVKEAKEEENKEIKDEKKDTRKSRSASRK” was tested, and the “transcriptional activation domain activity” value was < 6570.

With “HLNPSWIFLFLFLFLFSPSPFYFLFLFFFFFFGGVPGNGFGFGILLYFFAAGI” the “transcriptional activation domain activity” value was 45700.

With “LYFLRPEVLPDRYAFTIPAISFLGTNDYPVLVPDLFLLLTSSFWSPTLLWFFT” the “transcriptional activation domain activity” value was 55600.

“DGDEEDAKDGRKKKKKKRLPKSPIGNPGEKLGFVILGAQHAREWVATSAALYL” was tested, and the “transcriptional activation domain activity” value was 35700.

“VHFIYHHSFRMRFYYFFLLSFLQAGRSIGFLIHGFWCFLLLIAFFVYPFLRFV” was tested, and the “transcriptional activation domain activity” value was 64600.

In the case of “KIHLLPTGVHQWNLKVKDLIHCLKLFHYAEIMYALSIVPLKAAIIFQCLRVFV”, the “transcriptional activation domain activity” value is reported as 47200.

With “KFIWRSSWSLPKIMYLLIRYLGLVCLLYYAMNAVTVQKSIAVCQLYIISMHTV” the “transcriptional activation domain activity” value was 67000.

For “DLASPSDNDIDEARSREIAAKAVTGILVLLLKWLKLSHILKFEYLTQLLLDSN”, the “transcriptional activation domain activity” value was 64400.

With “SAFGSSANAPTSGGFGAFGQPVAAAATTSAFGSTTPFGAAAPSPAAPAAAASP” the “transcriptional activation domain activity” value was 25700.

For “LTWDVFKLALFFCLFQDISFSFCTFLLCFFLICFAYIVYPLSLSLLNGVLFDP”, the “transcriptional activation domain activity” value was 44900.

In the case of “MHVYVYIIIYNNIWYCMVYSINIHIFVNNYYLLRLLAIYYSYCFIVLLFIMFF”, the “transcriptional activation domain activity” value is reported as 43500.

In the case of “ITQVEDRSKGYLIGLVKELVAEYVEDLNALVLLACSLKVGIQVSSAAGMIYKK”, the “transcriptional activation domain activity” value is reported as 53600.

“MMSMFWGWHGQRNGVFSGVLGFGILLVTWFFFFFKFSPHILLIISVYGHFGFF” was tested, and the “transcriptional activation domain activity” value was 81500.

In the case of “WLSHSQKKHCELCKTPFRFTKLYAPNMPKALPTHVFLSHVAKYILRNLLVWLR”, the “transcriptional activation domain activity” value is reported as 81200.

For “EMLSASKGRKKARMEEEDEDEWAGDGASKAKAKGKKAAKKPAKARAPKGKAAA”, the “transcriptional activation domain activity” value was 37400.

In the case of “MFYYIYLFSFFFIIVLPLPLSLCTFLHPLLLDCNFTLVAFFFCLLLFYVCHFF”, the “transcriptional activation domain activity” value is reported as 28800.

“GILRYCKIWLAWVQIHFGVHFFVLTIWYRMWNLHRLVVQQKLLSGWSYYLPII” was tested, and the “transcriptional activation domain activity” value was 36800.

“MSFFLSFFVLFCFYFYFTPCLFFSSHLLTFFFFSDSPLFVFYFFYFFFSSFVY” was tested, and the “transcriptional activation domain activity” value was 67700.

For “GWNTHRAQTYTQLAKHLQSHGFHCKQYLGWLCHNIVAIEVYWMMIHLKRILPL”, the “transcriptional activation domain activity” value was 56300.

“MFFLFFLLVSWWLCYLLLMASSFLIVGGMYLLALCPPLGCIGDLVVPFYFLFL” was tested, and the “transcriptional activation domain activity” value was 81700.

With “LLIQPLIQGFCYLMQFWISFFSSLFCFVTGDIPILLGILIPFYCLFFFHFFLF” the “transcriptional activation domain activity” value was 58700.

For “MIAVFFYYFLLFFYITCEFPVLCCGSLFFFFFFFFCFCDIYCISFCLLAHYHY”, the “transcriptional activation domain activity” value was 44300.

“ARQSDDDGQVKVYQRGSASLVAMLLTNLAPNETLIALINLIADRPWLKALYAL” was tested, and the “transcriptional activation domain activity” value was 80500.

With “TLLIASLLVVLCLLRRFLLSILCNRDFYMIKFYTFFLYQILLCSLLKCLRLLW” the “transcriptional activation domain activity” value was 80500.

With “ERDKRDDKDRERRHHKRSRHHDSDEERREGSSSRRHRHKSRRSKSPSSKVNEE” the “transcriptional activation domain activity” value was 22800.

“FLLGVFVCLVNLREWWMVDRGPRIMMGEFGKVLSVRMRFALTLHFREQVHVNH” was tested, and the “transcriptional activation domain activity” value was 48800.

With “NNTNNASPATSTVSLQLPNLPDQNSLTPNAQNNTVTLRKGFHVLLVEDDAVSI” the “transcriptional activation domain activity” value was 23700.

With “FFLVLIYCPFPSFGPDLSLPFPSPFLSLHLLITILLSPLSPFYLFLFYFTSPS” the “transcriptional activation domain activity” value was 84300.

For “TGVGLGVCARHEFVLANSAVDLQRGERYANMDYCAASLLRHICLLLFIVFLYD”, the “transcriptional activation domain activity” value was 57700.

“FAQRKSPFTQLLAFFLTRGCVIAGYQIILLIVPLLAGVSYTWVPLLFCLSRVY” was tested, and the “transcriptional activation domain activity” value was 62100.

With “KYLIQSLILYPVPLLQVIITYFVQIKRYDISTVVGCSLLNVYYPNWMFLVFFL” the “transcriptional activation domain activity” value was 58800.

“KEESGAKTPQSPASKSADDKNATREKEGAGSPDAAKGKGNEEVQTESGRDDRK” was tested, and the “transcriptional activation domain activity” value was 28400.

For “HPLSQRYVLIMSITRLCIPLYFYGYEDNFIGHETTHWIWILVIYVSLQVLILF”, the “transcriptional activation domain activity” value was 40200.

In the case of “TSSPSAHSSTNTNVVFVFGSEDKRVKEVGDALKVKLAVKGGGKGVKWSGKFTG”, the “transcriptional activation domain activity” value is reported as 25400.

For “MDYVWRRVRWIRVRKHMVFIATLLEPFTECMLVCLIGALSARHLFDIRLVVFY”, the “transcriptional activation domain activity” value was 49000.

“QLFTFLLQTYRMKYLVQRVSPRTIRQINDVRLRHLSYKLRQRLIWFADIMRSY” was tested, and the “transcriptional activation domain activity” value was 58900.

For “HIDSFLDQMCKVAEGGGFSLSTLADCVILFRDLARIYQEPFSSPFLRLLYAYT”, the “transcriptional activation domain activity” value was 65300.

For “GKRARGVGKLRPSVVLYNELHKDGEGVGEVARRDLVGSSKGKGRSGVDTLLVV”, the “transcriptional activation domain activity” value was 59800.

In the case of “LGTEVVTLEDEIYYIWVRYYSIALLVFDTPNSHLCHSRNNLGQLVAVINVFLF”, the “transcriptional activation domain activity” value is reported as 46300.

“IFGSSFFLLCLFNLFFFLFFLSFLSLLFSFFLFFLFFFLFDVFTTVILSSTYG” was tested, and the “transcriptional activation domain activity” value was 51800.

In the case of “MTGFSFLLMTFFFFLFFLFFFFISLFLLFFPLFSSHSLFFRLLAICSGLWCSG”, the “transcriptional activation domain activity” value is reported as 60000.

“IMGNLVVLLWHTKVDNIESYLADLSRCIEDFLNVTAQCAPSILILKPKFHFLL” was tested, and the “transcriptional activation domain activity” value was 56300.

“CFKLSLVALWPFGKSIDWNLRSAGCLSTVFNVIWLVLLGWHLCLIHLGLMLLF” was tested, and the “transcriptional activation domain activity” value was 43600.

With “WLFCFICYPLPLHPISYQIAPPFYSIFFVILLTIVFFLLLFLFVSSFLYLRLG” the “transcriptional activation domain activity” value was 70000.

In the case of “LSILIYESIPERRQSSLARSDGISAMDVCVSLLVTLAHLSPLVSRFGGVTING”, the “transcriptional activation domain activity” value is reported as 72500.

In the case of “CLRYSLLLVSLGLGAEGSPPFLILFPWTPILLARFYCIGWWVRFGFIFVRLWP”, the “transcriptional activation domain activity” value is reported as 63200.

“MSYIRSCLSFSPFFSFLFLFLPFFFLSFLPFSMCFLCKAFECLFVGGIKHMEH” was tested, and the “transcriptional activation domain activity” value was 37400.

In the case of “KKAKAGDEDEEGGADKASPKKGAKRGRKQVEDEDEDESEEVQPKAKRAKKAVV”, the “transcriptional activation domain activity” value is reported as 24800.

For “PAAQFLTEKRDRGGGGKGGEEGGGGSGKKVYKGAAMPNRYGIRPGHRWDGVDR”, the “transcriptional activation domain activity” value was 28200.

For “MSHPYRGERVHLQVGQNIWIVALIVLVQIFSTVRSNPGCSLLVSMTAKFWCPR”, the “transcriptional activation domain activity” value was 63800.

For “TPNNLTSFDDCHLIDGLELTYSDLLVLDDFLAFDFLGLDHFIFMVTPPWENVV”, the “transcriptional activation domain activity” value was 81000.

With “GRWSYLRTSEMILTFFYKNIMWTLVLFWYQLMCGFTGTMMFDYSYITLYNLVF” the “transcriptional activation domain activity” value was 46300.

In the case of “IPTPFASHAFNPVDGFLQSLPYHLYAYFIPMHKYLYLSMFVFVNFWTVMIHDG”, the “transcriptional activation domain activity” value is reported as 58500.

With “AKNLHLHILRHPSKWMKLYFYLWPLIVFYHIPLQSFFDFNAVFMLLQVARFPN” the “transcriptional activation domain activity” value was 50100.

“MGSLLLFMGIDEGSFLCGFFFSIFFLLLAFFTSYGCFCDKFFFLLYLLLLLRK” was tested, and the “transcriptional activation domain activity” value was 44300.

In the case of “KVVLTERLARGKAEIKDLQVCFECMSLVGMKINIFKGNGFMWTIACSVLFQKG”, the “transcriptional activation domain activity” value is reported as 52100.

For “MFCLRSWLPLLFIPTNASPIFIFLFFVSTYFLNRPCVYCSFLLLILFASSCHW”, the “transcriptional activation domain activity” value was 52500.

In the case of “NPQLFLLGGCLTLVHLLFSSLWLWLVSILFAHDREYPSFVLLSYFMIFYFWTS”, the “transcriptional activation domain activity” value is reported as 54000.

With “GSTHPRQVFDQLDDCSSILFSPLTTNTNNEFEGESDDFVHSPYLNSEADFSQI” the “transcriptional activation domain activity” value was 75200.
